Data as given in US20220229068A1, “DETECTION OF PROTEIN TO PROTEIN INTERACTIONS” (THE GOVERNING COUNCIL OF THE UNIVERSITY OF TORONTO, priority 2019, published 2022).

Tests used:
Experiment in all cases: SIMPL ELISA, bait-IN/prey-CIC
[1] = target: CRADD (prey, CIC format) (human) (UniProt P78560)
[2] = target: T1, VAV1 (prey, CIC format) (human) (UniProt P15498)
T1 sequence (looked up): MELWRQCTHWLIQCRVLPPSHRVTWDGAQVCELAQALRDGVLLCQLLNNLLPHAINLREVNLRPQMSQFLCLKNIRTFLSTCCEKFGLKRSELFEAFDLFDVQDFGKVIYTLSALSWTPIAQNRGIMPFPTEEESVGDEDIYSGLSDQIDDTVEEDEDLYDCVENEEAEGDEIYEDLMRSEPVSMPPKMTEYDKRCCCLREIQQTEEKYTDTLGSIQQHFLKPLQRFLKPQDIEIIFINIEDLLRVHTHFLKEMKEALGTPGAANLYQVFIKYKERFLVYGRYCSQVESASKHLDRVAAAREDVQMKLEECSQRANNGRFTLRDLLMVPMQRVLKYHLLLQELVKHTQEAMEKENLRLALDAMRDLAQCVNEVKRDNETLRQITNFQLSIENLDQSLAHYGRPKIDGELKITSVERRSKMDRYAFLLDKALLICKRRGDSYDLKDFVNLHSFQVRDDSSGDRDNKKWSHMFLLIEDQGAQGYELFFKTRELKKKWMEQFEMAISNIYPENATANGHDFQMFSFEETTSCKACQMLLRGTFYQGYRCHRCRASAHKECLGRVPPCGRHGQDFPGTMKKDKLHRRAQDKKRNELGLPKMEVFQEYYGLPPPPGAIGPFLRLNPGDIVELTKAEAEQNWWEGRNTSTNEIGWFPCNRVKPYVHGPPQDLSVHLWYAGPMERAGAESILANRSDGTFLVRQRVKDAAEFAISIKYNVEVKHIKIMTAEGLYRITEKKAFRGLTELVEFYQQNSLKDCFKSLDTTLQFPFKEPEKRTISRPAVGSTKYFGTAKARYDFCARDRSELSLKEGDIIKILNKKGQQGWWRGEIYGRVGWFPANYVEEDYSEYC

[3] = target: CD58 (prey, CIC format) (human) (UniProt P19256)
CD58 (prey, CIC format) (human), sequence (P19256 29-250 limits assumed): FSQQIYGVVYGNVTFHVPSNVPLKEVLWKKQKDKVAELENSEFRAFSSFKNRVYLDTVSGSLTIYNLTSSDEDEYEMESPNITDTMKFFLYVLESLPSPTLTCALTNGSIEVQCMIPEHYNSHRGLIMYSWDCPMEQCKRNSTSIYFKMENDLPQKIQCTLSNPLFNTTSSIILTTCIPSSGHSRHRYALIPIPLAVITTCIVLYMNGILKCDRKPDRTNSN

[4] = target: GTF2F2 (prey, CIC format) (human) (UniProt P13984)
GTF2F2 (prey, CIC format) (human), sequence (P13984 whole entry): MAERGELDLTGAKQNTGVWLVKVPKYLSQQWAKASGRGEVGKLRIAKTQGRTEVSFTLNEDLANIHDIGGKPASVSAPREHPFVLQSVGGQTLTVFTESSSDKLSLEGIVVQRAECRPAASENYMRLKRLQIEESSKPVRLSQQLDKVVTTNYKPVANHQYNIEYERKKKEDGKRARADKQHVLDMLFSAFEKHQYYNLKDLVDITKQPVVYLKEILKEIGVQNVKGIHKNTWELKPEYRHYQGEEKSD

[5] = target: HGS (prey, CIC format) (human) (UniProt O14964)
HGS (prey, CIC format) (human), sequence (O14964 whole entry): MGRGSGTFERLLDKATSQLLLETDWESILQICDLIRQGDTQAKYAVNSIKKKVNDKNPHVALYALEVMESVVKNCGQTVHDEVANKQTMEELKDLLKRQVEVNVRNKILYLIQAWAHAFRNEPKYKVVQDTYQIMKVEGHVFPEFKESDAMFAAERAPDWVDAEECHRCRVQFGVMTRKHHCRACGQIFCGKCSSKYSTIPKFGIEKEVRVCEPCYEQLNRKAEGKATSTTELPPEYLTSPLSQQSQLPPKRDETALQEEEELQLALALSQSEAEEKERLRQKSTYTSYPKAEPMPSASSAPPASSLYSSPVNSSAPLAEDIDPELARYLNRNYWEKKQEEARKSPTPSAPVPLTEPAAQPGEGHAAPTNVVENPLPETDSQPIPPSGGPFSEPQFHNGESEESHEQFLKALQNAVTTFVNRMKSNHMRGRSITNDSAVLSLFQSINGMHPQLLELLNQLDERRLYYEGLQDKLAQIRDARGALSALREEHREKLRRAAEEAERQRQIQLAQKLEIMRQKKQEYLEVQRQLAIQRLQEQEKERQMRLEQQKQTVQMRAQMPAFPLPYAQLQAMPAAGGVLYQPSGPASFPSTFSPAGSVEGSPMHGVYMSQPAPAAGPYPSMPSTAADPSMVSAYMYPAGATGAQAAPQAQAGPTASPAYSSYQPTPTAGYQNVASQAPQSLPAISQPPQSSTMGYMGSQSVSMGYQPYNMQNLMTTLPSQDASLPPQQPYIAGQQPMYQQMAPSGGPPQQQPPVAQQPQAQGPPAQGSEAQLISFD

[6] = target: PDGFRB (prey, CIC format) (human) (UniProt P09619)
[7] = target: UBE2I (prey, CIC format) (human) (UniProt P63279)
UBE2I (prey, CIC format) (human), sequence (P63279 whole entry): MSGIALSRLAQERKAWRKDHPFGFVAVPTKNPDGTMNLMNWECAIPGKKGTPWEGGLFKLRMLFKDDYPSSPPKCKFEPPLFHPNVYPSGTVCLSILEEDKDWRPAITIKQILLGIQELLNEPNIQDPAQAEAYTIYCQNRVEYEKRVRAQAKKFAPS

[8] = target: PTK2 (prey, CIC format) (human) (UniProt Q05397)
PTK2 (prey, CIC format) (human), sequence (Q05397 whole entry): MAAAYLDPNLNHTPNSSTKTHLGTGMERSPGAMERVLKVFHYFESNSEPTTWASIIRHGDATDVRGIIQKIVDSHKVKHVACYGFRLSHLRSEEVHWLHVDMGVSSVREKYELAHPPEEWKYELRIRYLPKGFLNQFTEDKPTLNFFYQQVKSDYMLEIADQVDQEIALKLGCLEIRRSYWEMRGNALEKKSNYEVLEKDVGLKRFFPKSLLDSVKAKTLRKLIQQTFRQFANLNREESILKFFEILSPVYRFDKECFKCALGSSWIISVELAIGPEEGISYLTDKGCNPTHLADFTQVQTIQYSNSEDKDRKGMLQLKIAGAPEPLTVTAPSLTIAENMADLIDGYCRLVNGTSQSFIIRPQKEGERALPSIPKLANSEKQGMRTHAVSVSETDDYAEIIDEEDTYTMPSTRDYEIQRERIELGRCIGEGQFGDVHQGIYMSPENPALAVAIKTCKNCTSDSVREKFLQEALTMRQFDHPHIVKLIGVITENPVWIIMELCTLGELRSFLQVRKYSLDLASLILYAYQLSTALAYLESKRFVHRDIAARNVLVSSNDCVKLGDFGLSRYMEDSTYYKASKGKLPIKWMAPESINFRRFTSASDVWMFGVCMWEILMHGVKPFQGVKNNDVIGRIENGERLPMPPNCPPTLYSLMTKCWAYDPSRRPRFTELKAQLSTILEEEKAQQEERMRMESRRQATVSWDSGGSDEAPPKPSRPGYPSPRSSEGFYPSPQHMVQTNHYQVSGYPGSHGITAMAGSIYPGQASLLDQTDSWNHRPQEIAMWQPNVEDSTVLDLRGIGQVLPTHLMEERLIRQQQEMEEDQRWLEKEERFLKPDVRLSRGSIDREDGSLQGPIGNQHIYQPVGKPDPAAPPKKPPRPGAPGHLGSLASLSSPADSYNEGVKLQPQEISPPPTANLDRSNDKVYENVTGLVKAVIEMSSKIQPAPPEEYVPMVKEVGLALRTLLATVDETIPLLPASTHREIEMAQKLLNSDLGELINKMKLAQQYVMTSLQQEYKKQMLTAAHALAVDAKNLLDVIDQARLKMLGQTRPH

[9] = target: S100A7 (prey, CIC format) (human) (UniProt P31151)
S100A7 (prey, CIC format) (human), sequence (P31151 whole entry): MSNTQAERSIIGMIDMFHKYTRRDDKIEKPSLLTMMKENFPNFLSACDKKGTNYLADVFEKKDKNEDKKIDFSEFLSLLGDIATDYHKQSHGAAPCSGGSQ

[10] = target: T2, LAT (prey, CIC format) (human) (UniProt O43561)
T2 sequence (looked up): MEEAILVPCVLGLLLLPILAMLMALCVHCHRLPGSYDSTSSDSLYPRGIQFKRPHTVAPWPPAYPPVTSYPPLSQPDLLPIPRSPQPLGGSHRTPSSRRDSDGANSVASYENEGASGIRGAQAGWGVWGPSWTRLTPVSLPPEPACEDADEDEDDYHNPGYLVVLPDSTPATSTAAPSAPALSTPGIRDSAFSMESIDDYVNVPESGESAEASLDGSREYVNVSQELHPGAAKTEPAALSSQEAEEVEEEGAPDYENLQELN

[11] = target: T3, PEX3 (prey, CIC format) (human) (UniProt P56589)
T3 sequence (looked up): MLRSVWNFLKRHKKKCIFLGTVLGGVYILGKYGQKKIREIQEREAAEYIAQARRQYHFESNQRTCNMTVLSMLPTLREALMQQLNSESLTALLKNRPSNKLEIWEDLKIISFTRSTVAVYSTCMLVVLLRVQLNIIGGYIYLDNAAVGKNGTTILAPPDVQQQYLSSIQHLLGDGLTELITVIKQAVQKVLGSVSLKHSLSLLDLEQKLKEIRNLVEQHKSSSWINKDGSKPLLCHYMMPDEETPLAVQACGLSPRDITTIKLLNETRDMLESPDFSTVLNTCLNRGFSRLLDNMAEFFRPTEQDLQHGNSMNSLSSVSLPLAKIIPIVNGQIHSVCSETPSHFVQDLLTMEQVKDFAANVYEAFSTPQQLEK

[12] = target: NCK1 (prey, CIC format) (human) (UniProt P16333)
[13] = target: LGALS3BP (prey, CIC format) (human) (UniProt Q08380)
LGALS3BP (prey, CIC format) (human), sequence (Q08380 19-585 limits assumed): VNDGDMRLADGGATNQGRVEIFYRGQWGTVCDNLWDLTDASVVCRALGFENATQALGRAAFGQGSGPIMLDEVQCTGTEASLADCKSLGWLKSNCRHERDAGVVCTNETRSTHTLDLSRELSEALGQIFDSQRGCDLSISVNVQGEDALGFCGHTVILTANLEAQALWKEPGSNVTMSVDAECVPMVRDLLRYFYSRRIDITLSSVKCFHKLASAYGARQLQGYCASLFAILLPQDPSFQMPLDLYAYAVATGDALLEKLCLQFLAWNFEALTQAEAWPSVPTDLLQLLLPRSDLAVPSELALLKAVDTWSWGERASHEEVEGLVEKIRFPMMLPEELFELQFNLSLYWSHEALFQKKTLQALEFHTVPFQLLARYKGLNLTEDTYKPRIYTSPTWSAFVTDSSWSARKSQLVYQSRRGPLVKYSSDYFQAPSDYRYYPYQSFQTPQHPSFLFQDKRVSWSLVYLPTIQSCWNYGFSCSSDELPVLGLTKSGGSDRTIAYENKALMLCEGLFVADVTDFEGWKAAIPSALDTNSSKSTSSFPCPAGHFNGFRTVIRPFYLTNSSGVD

[14] = target: LSM2 (prey, CIC format) (human) (UniProt Q9Y333)
LSM2 (prey, CIC format) (human), sequence (Q9Y333 whole entry): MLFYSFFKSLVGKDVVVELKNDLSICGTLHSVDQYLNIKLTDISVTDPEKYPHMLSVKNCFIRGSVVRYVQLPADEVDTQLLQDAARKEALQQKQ

[15] = target: FGFR1 (prey, CIC format) (human) (UniProt P11362)
[16] = target: T4, PEX19 (prey, CIC format) (human) (UniProt P40855)
T4 sequence (looked up): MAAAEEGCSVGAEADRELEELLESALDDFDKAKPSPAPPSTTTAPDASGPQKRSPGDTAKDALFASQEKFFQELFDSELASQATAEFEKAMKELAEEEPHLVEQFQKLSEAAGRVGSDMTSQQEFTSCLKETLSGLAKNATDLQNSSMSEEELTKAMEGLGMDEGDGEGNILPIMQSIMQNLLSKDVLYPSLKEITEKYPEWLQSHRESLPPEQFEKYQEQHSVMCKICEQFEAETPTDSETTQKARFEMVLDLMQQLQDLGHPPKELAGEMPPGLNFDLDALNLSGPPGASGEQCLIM

[17] = target: T5, NRG1 (prey, CIC format) (human) (UniProt Q02297)
T5 sequence (looked up): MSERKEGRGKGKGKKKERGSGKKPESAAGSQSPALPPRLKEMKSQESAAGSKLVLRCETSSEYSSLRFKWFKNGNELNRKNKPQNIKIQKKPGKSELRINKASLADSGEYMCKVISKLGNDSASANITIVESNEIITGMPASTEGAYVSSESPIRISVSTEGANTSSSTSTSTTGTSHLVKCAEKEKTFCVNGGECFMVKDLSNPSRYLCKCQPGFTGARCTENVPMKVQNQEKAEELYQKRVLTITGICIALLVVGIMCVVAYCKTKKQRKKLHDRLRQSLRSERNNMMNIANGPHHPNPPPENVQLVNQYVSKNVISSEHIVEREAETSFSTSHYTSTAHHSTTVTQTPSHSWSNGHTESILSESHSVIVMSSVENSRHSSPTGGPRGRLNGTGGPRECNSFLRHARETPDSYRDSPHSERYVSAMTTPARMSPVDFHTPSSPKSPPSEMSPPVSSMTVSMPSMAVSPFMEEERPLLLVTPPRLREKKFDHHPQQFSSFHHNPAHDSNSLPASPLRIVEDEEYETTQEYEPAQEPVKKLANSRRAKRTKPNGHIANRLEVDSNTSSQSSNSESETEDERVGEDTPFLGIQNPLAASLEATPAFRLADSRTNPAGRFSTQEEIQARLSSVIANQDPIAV

[18] = target: EZR (prey, CIC format) (human) (UniProt P15311)
[19] = target: SRC (prey, CIC format) (human) (UniProt P12931)
[20] = target: RAD23A (prey, CIC format) (human) (UniProt P54725)
RAD23A (prey, CIC format) (human), sequence (P54725 whole entry): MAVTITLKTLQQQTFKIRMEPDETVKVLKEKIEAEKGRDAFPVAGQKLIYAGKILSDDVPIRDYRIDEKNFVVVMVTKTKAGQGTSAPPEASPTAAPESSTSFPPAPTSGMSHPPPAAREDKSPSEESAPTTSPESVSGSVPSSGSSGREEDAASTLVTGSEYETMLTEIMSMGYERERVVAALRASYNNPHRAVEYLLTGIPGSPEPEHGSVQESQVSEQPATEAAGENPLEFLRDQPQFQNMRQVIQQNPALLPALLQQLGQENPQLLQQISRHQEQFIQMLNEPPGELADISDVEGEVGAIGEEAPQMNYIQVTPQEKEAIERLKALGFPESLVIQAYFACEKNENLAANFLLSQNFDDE

[21] = target: TCL1A (prey, CIC format) (human) (UniProt P56279)
TCL1A (prey, CIC format) (human), sequence (P56279 whole entry): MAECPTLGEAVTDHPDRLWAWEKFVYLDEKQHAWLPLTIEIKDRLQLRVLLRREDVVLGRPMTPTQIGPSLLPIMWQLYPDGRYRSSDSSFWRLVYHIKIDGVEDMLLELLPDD

[22] = target: T6, NOD1 (prey, CIC format) (human) (UniProt Q9Y239)
T6 sequence (looked up): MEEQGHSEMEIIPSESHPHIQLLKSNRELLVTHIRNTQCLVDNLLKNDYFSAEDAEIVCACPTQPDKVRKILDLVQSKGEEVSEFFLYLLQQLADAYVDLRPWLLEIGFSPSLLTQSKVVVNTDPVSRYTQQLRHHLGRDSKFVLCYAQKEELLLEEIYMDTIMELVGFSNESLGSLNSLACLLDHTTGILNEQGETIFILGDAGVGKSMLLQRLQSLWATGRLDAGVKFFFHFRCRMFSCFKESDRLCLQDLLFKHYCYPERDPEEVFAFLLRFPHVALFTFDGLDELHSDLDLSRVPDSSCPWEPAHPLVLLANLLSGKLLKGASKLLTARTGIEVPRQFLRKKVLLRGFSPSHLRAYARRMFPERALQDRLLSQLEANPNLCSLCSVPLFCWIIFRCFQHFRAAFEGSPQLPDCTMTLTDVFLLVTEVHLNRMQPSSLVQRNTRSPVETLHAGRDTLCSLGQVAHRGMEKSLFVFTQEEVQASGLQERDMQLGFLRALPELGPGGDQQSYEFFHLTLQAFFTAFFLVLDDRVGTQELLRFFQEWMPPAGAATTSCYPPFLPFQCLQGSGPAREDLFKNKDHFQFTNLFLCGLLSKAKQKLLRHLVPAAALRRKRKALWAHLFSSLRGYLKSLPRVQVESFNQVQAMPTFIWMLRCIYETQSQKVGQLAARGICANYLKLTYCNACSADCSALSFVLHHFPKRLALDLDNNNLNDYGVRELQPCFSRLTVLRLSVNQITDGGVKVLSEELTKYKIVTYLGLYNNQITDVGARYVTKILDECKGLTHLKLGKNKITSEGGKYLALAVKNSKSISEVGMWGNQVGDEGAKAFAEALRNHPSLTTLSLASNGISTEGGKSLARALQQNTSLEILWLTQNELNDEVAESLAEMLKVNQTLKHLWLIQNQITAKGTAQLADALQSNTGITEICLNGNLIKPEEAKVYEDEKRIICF

[23] = target: RPA3 (prey, CIC format) (human) (UniProt P35244)
RPA3 (prey, CIC format) (human), sequence (P35244 whole entry): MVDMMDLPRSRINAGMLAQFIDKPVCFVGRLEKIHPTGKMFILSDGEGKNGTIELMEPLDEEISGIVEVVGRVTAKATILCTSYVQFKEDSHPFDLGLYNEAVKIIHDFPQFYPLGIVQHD

[24] = target: SMAD4 (prey, CIC format) (human) (UniProt Q13485)
[25] = target: GRB2 (prey, CIC format) (human) (UniProt P62993)
GRB2 (prey, CIC format) (human), sequence (P62993 whole entry): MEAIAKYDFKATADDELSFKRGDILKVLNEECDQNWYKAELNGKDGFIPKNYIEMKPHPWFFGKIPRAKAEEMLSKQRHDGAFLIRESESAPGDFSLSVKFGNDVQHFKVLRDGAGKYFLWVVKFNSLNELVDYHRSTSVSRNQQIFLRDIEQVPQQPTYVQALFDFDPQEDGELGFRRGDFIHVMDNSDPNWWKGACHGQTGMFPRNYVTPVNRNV

CRADD (prey, CIC format) (human), sequence (P78560 whole entry): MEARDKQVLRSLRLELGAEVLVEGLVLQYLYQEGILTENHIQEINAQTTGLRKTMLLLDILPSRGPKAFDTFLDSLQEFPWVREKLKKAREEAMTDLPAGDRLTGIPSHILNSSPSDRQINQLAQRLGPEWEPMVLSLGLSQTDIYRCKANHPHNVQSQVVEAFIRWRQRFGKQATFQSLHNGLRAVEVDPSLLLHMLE
CASP2 (bait, IN format), sequence (P42575 whole entry): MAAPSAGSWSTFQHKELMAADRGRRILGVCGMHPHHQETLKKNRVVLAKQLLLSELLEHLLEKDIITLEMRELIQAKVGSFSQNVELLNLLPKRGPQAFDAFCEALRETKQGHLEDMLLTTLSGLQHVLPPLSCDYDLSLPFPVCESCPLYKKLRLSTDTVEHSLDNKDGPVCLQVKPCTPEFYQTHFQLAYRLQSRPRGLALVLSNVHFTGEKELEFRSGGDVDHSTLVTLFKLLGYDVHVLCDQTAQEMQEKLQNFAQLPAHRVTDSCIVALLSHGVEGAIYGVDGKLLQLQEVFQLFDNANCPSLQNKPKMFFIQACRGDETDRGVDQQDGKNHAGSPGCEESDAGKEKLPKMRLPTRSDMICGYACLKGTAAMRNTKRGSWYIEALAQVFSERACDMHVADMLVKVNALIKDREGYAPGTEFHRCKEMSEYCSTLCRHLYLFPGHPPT

Substance “CASP2 (bait, IN format) (from UniProt P42575 1-452)” has a PLU mean [1] of 2.45 and a PLU mean [2] of 0.696.
With “CD2 (bait, IN format) (from UniProt P06729 25-351) (receptor)” the PLU mean [3] was 0.972, the PLU mean [4] was 0.299 and the PLU mean [5] was 0.253.
“CRK (bait, IN format) (from UniProt P46108 1-304)” gave a PLU mean [6] of 0.261 and a PLU mean [7] of 0.153.
“FABP5 (bait, IN format) (from UniProt Q01469 1-135)” showed a PLU mean [8] of 0.174 and a PLU mean [9] of 0.134.
Work on “GRB2 (bait, IN format) (from UniProt P62993 1-217)” yielded a PLU mean [8] of 0.741, a PLU mean [10] of 0.223 and a PLU mean [11] of 0.0588. The PLU mean [2] was 1.39.
“LCP2 (bait, IN format) (from UniProt Q13094 1-533)” showed a PLU mean [12] of 0.662, a PLU mean [1] of 0.193 and a PLU mean [2] of 0.789.
“LGALS3 (bait, IN format) (from UniProt P17931 1-250)” showed a PLU mean [13] of 0.248 and a PLU mean [14] of 0.162.
“LSM3 (bait, IN format) (from UniProt P62310 1-102)” showed a PLU mean [13] of 0.129, a PLU mean [14] of 3.03 and a PLU mean [15] of 0.272.
With “PEX14 (bait, IN format) (from UniProt O75381 1-377)” the PLU mean [16] was 2.17 and the PLU mean [17] was 0.31.
With “PRKAR2A (bait, IN format) (from UniProt P13861 1-404)” the PLU mean [18] was 0.123 and the PLU mean [19] was 0.186.
Substance “PSMD4 (bait, IN format) (from UniProt P55036 1-377)” has a PLU mean [20] of 0.919, a PLU mean [21] of 0.108 and a PLU mean [22] of 0.845.
In the case of “RPA2 (bait, IN format) (from UniProt P15927 1-270)”, the PLU mean [9] is reported as 0.0606 and the PLU mean [23] is reported as 2.72.
“SMAD1 (bait, IN format) (from UniProt Q15797 1-465)” gave a PLU mean [24] of 0.182 and a PLU mean [25] of 0.151.
“TP53 (bait, IN format) (from UniProt P04637 1-393)” gave a PLU mean [7] of 0.194.
